Results: publication doi:10.1101/2020.05.19.105320

Biological target: H10CLPX Zinc binding domain (CLPXZBD) (human)
Experiment: SEC

## H10CLPX Zinc binding domain (CLPXZBD) (domain or fragment)
  stoichiometry N: 2

B1: H10PDIP38 (PDIP38 with an N-terminal H10-tag) (natural protein)
chain: SSRNRPEGKVLETVGVFEVPKQNGKYETGQLFLHSIFGYRGVVLFPWQARLYDRDVASAAPEKAENPAGHGSKEVKGKTHTYYQVLIDARDCPHISQRSQTEAVTFLANHDDSRALYAIPGLDYVSHEDILPYTSTDQVPIQHELFERFLLYDQTKAPPFVARETLRAWQEKNHPWLELSDVHRETTENIRVTVIPFYMGMREAQNSHVYWWRYCIRLENLDSDVVQLRERHWRIFSLSGTLETVRGRGVVGREPVLSKEQPAFQYSSHVSLQASSGHMWGTFRFERPDGSHFDVRIPPFSLESNKDEKTPPSGLHW
  stoichiometry N: 1
